Article PMC2756588

B1: unnamed (peptide)
chain: NVLRKILEIPLHSFS
B2: unnamed (peptide)
chain: NIKVLLNPKLGKPVK
B3: unnamed (peptide)
chain: ATNVPVAPPPPPASL
B4: unnamed (peptide)
chain: VPVAPPPPPASLGQS
B5: unnamed (peptide)
chain: RNNRPVPPPPPMRTT
B6: unnamed (peptide)
chain: RPVPPPPPMRTTTEG

target: Sho1, P40073; assay: SPOT array; conditions: median of control spots 1148
Sequence (P40073 287-367): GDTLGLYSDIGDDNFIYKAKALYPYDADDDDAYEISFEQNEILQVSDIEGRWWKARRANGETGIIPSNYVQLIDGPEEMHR

Binder	SPOT intensity
B1	6
B2	63
B3	0
B4	0
B5	0
B6	2

target: Bem1-1, P29366; assay: SPOT array; conditions: median of control spots 4282
Sequence (P29366 55-141): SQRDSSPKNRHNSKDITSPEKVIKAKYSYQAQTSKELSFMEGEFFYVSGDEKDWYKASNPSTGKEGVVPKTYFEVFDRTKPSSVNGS

Binder	SPOT intensity
B1	2
B2	2
B3	4
B4	4
B5	5
B6	3

target: Bem1-2, P29366; assay: SPOT array; conditions: median of control spots 4347
Sequence (P29366 139-227): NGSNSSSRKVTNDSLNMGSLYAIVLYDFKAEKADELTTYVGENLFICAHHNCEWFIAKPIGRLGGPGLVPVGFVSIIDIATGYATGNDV

Binder	SPOT intensity
B1	0
B2	3
B3	0
B4	1
B5	0
B6	6

target: T1, Boi2, P39969; assay: SPOT array; conditions: median of control spots 1161
T1 sequence (P39969 32-116, looked up): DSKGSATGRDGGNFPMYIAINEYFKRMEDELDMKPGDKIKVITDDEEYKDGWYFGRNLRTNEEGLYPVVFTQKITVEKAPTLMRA

Binder	SPOT intensity
B1	0
B2	0
B3	0
B4	0
B5	1
B6	0

target: T2, Hof1, Q05080; assay: SPOT array; conditions: median of control spots 4086
T2 sequence (Q05080 590-669, looked up): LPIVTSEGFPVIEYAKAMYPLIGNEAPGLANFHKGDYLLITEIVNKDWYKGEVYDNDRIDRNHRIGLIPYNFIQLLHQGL

Binder	SPOT intensity
B1	0
B2	13
B3	0
B4	0
B5	0
B6	23

target: T3, Boi1, P38041; assay: SPOT array; conditions: median of control spots 1162
T3 sequence (P38041 1-86, looked up): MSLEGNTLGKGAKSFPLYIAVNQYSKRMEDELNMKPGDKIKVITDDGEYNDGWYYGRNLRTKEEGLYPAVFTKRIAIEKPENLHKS

Binder	SPOT intensity
B1	6
B2	5
B3	0
B4	0
B5	0
B6	0

target: T4, Myo5, Q04439; assay: SPOT array; conditions: median of control spots 471
T4 sequence (Q04439 1072-1160, looked up): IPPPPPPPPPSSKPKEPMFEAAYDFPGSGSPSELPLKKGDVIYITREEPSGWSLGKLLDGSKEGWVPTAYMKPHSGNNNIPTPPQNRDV

Binder	SPOT intensity
B1	0
B2	0
B3	0
B4	1
B5	1
B6	2

target: T5, Cyk3, Q07533; assay: SPOT array; conditions: median of control spots 1451
T5 sequence (Q07533 1-83, looked up): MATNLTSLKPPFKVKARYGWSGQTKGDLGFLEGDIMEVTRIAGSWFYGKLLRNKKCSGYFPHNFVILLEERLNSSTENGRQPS

Binder	SPOT intensity
B1	1
B2	5
B3	0
B4	0
B5	2
B6	0

target: T6, Sla1-3, P32790; assay: SPOT array; conditions: median of control spots 5475
T6 sequence (P32790 344-424, looked up): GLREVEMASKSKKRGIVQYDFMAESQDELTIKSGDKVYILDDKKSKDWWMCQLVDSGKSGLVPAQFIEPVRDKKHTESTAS

Binder	SPOT intensity
B1	0
B2	8
B3	0
B4	0
B5	0
B6	2

target: T7, Bbc1, P47068; assay: SPOT array; conditions: median of control spots 796
T7 sequence (P47068 1-78, looked up): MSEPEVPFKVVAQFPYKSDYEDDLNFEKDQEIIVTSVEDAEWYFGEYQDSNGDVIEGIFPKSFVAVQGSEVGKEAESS

Binder	SPOT intensity
B1	62
B2	111
B3	0
B4	0
B5	0
B6	0

target: Rvs167, P39743; assay: SPOT array; conditions: median of control spots 2707
Sequence (P39743 419-482): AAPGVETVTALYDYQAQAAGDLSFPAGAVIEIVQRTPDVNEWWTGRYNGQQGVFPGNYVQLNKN

Binder	SPOT intensity
B1	0
B2	0
B3	0
B4	0
B5	1870
B6	7510

target: T8, Bzz1-1, P38822; assay: SPOT array; conditions: median of control spots 4446
T8 sequence (P38822 478-572, looked up): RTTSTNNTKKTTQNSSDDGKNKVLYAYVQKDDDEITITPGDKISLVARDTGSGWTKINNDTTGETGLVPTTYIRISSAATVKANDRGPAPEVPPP

Binder	SPOT intensity
B1	0
B2	2
B3	1
B4	8
B5	6
B6	19

target: T9, Pin3, Q06449; assay: SPOT array; conditions: median of control spots 2171
T9 sequence (Q06449 53-122, looked up): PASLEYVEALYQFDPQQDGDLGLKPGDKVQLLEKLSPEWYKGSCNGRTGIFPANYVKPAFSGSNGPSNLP

Binder	SPOT intensity
B1	0
B2	2
B3	0
B4	0
B5	31
B6	59

target: T10, Lsb3, P43603; assay: SPOT array; conditions: median of control spots 406
T10 sequence (P43603 385-451, looked up): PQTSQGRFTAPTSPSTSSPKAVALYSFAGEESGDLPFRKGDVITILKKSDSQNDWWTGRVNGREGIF

Binder	SPOT intensity
B1	0
B2	0
B3	0
B4	0
B5	0
B6	0

target: T11, Hse1, P38753; assay: SPOT array; conditions: median of control spots 1727
T11 sequence (P38753 208-285, looked up): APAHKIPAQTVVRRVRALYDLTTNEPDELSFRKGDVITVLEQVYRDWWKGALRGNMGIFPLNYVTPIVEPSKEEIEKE

Binder	SPOT intensity
B1	5
B2	20
B3	0
B4	0
B5	7
B6	9

target: T12, Lsb1, P53281; assay: SPOT array; conditions: median of control spots 388
T12 sequence (P53281 45-122, looked up): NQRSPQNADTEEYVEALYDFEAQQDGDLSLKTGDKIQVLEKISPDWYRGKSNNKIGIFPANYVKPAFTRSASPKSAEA

Binder	SPOT intensity
B1	0
B2	1
B3	0
B4	0
B5	0
B6	0

target: T13, Pex13, P80667; assay: SPOT array; conditions: median of control spots 1341
T13 sequence (P80667 295-386, looked up): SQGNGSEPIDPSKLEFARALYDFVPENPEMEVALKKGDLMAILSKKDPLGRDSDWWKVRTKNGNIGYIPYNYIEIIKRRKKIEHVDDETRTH

Binder	SPOT intensity
B1	0
B2	6
B3	0
B4	0
B5	201
B6	185

target: T14, Sla1-2, P32790; assay: SPOT array; conditions: median of control spots 712
T14 sequence (P32790 60-140, looked up): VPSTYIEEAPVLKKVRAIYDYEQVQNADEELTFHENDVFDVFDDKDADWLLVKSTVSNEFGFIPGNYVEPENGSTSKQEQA

Binder	SPOT intensity
B1	0
B2	0
B3	0
B4	0
B5	1
B6	0

target: T15, Bud14, P27637; assay: SPOT array; conditions: median of control spots 956
T15 sequence (P27637 247-328, looked up): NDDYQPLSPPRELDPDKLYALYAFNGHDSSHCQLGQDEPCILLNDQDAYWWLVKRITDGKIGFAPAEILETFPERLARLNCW

Binder	SPOT intensity
B1	31
B2	27
B3	0
B4	0
B5	0
B6	0

target: Myo3, P36006; assay: SPOT array; conditions: median of control spots 468

Binder	SPOT intensity
B1	0
B2	6
B3	0
B4	0
B5	0
B6	0

target: T16, Cdc25, P04821; assay: SPOT array; conditions: median of control spots 969
T16 sequence (P04821 50-136, looked up): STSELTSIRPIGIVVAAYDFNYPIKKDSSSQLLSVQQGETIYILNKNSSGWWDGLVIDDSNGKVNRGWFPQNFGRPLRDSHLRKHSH

Binder	SPOT intensity
B1	105
B2	96
B3	0
B4	0
B5	0
B6	0

target: GST; assay: SPOT array; conditions: median of control spots 978

Binder	SPOT intensity
B1	0
B2	0
B3	0
B4	0
B5	0
B6	0

target: T17, Nbp2, Q12163; assay: SPOT array; conditions: median of control spots 357
T17 sequence (Q12163 103-180, looked up): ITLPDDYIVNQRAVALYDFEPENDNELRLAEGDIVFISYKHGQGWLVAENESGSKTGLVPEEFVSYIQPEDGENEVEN

Binder	SPOT intensity
B1	0
B2	2
B3	0
B4	0
B5	0
B6	0

target: T18, Bzz1-2, P38822; assay: SPOT array; conditions: median of control spots 4538
T18 sequence (P38822 568-633, looked up): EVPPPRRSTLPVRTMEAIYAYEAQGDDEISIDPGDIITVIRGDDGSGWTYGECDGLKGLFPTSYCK

Binder	SPOT intensity
B1	5
B2	6
B3	3
B4	0
B5	233
B6	664

target: T19, Abp1, P15891; assay: SPOT array; conditions: median of control spots 935
T19 sequence (P15891 535-592, looked up): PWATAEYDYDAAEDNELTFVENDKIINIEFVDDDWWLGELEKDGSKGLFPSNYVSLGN

Binder	SPOT intensity
B1	7
B2	93
B3	0
B4	0
B5	0
B6	0

target: T20, Fus1, P11710; assay: SPOT array; conditions: median of control spots 1200
T20 sequence (P11710 432-512, looked up): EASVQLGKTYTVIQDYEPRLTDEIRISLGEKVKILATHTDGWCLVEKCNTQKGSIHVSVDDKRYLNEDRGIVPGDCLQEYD

Binder	SPOT intensity
B1	35
B2	2
B3	0
B4	0
B5	0
B6	1

target: T21, Lsb4, P32793; assay: SPOT array; conditions: median of control spots 397
T21 sequence (P32793 402-468, looked up): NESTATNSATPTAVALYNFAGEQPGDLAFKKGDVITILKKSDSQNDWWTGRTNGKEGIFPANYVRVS

Binder	SPOT intensity
B1	0
B2	1
B3	0
B4	0
B5	0
B6	0
